Results reported in the supplement of paper PMC7877785.
± gives the uncertainty stated by the source.

Assay: self-splicing fitness, log relative to wild type (ln ratio); higher = more splicing; Tetrahymena group I intron in knt gene, E. coli kanamycin selection, DiMSum; sequences stand for … in CUCUCU…GGAGGGAAAAGUUAUCAGGCAUGCACCUGGUAGCUAGUCUUUAAACCAAUAGAUUGCAUCGGUUUAAAAGGCAAGACCGUCAAAUUGCGGGAAAGGGGUCAACAGCCGUUCAGUACCAAGUCUCAGGGGAAACUUUGAGAUGGCCUUGCAAAGGGUAUGGUAAUAAGCUGACGGACAUGGUCCUAACCACGCAGCCAAGUCCUAAGUCAACAGAUCUUCUGUUGAUAUGGAUGCAGUUCACAGACUAAAUGUCGGUCGGGGAAGAUGUAUUCUUCUCAUAAGAUAUAGUCGGACCUCUCCUUAAUGGGAGCUAGCGGAUGAAGUGAUGCAACACUGGAGCCGCUGGGAACUAAUUUGUAUGCGAAAGUAUAUUGAUUAGUUUUGGAGUACUCGUGGUCG
Summary of the method: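 DiMSum derived fitness as the error-weighted combination of fold changes across replicates, kanamycin versus no kanamycin, normalised to wild type. E. coli BL21(DE3) held the library, which randomised all eight P1ex-region intron nucleotides within the knt kanamycin-resistance gene on pET-22b(+). Six replicate transformations grew overnight at 37°C or 30°C on LB agar with or without 25 μg/mL kanamycin, also containing 100 μg/mL carbenicillin, 50 μM IPTG and 0.2% rhamnose, and pooled colonies were amplicon-sequenced on an Illumina HiSeq 2500.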

| Sequence | self-splicing fitness (ln) (30 °C) | self-splicing fitness (ln) (37 °C) |
| --- | --- | --- |
| AGCAAGCAAUAUUACGCAGU | -3.01 ± 0.18 | -1.28 ± 0.14 |
| AGCAAGCAAUAUUACGCCAC | -3.17 ± 0.28 | -3.33 ± 0.28 |
| AGCAAGCAAUAUUACGCUGG | -4.34 ± 0.41 | -2.95 ± 0.26 |
| AGCAAGCAAUAUUACGCUUG | -4.25 ± 0.28 | -1.29 ± 0.2 |
| AGCAAGCAAUAUUACGGAGC | -2.67 ± 0.19 | -1.31 ± 0.24 |
| AGCAAGCAAUAUUACGGCGC | -0.695 ± 0.095 | 0.164 ± 0.16 |
| AGCAAGCAAUAUUACGGGAA | -2.65 ± 0.14 | -1.03 ± 0.1 |
| AGCAAGCAAUAUUACGGGUG | -1.36 ± 0.056 | -0.789 ± 0.076 |
| AGCAAGCAAUAUUACGUAAU | -1.99 ± 0.1 | -1.27 ± 0.12 |
| AGCAAGCAAUAUUACGUGGU | -2.79 ± 0.12 | -3.13 ± 0.18 |
| AGCAAGCAAUAUUACGUUGC | -3.69 ± 0.19 | -1.08 ± 0.16 |
| AGCCAGCAAUAUUACGACAU | -1.512 ± 0.012 | -0.664 ± 0.032 |
| AGCCAGCAAUAUUACGACCC | -1.46 ± 0.34 | -0.503 ± 0.24 |
| AGCCAGCAAUAUUACGACGA | -1.97 ± 0.1 | -1.76 ± 0.12 |
| AGCCAGCAAUAUUACGAGCU | -3.38 ± 0.21 | -3 ± 0.35 |
| AGCCAGCAAUAUUACGCAAC | -4.16 ± 0.32 | -1.4 ± 0.23 |
| AGCCAGCAAUAUUACGCACA | -1.96 ± 0.13 | -0.518 ± 0.11 |
| AGCCAGCAAUAUUACGCAGC | – | -1.21 ± 0.28 |
| AGCCAGCAAUAUUACGCAUU | -1.65 ± 0.062 | -1.25 ± 0.075 |
| AGCCAGCAAUAUUACGCCAC | – | -3.04 ± 0.43 |
| AGCCAGCAAUAUUACGCCGA | – | -0.449 ± 0.29 |
| AGCCAGCAAUAUUACGCUAC | -2.52 ± 0.18 | -0.749 ± 0.17 |
| AGCCAGCAAUAUUACGGAAG | -1.57 ± 0.1 | 0.171 ± 0.12 |
| AGCCAGCAAUAUUACGGCCG | -1.29 ± 0.11 | -0.262 ± 0.13 |

| Sequence | self-splicing fitness (ln) (30 °C) | self-splicing fitness (ln) (37 °C) |
| --- | --- | --- |
| AGCCAGCAAUAUUACGGCUG | -2.52 ± 0.17 | -1.53 ± 0.2 |
| AGCCAGCAAUAUUACGGGAG | -2.56 ± 0.11 | -2.17 ± 0.14 |
| AGCCAGCAAUAUUACGGUUG | -0.979 ± 0.051 | -0.86 ± 0.075 |
| AGCCAGCAAUAUUACGUAAA | -3.03 ± 0.12 | -1.55 ± 0.13 |
| AGCCAGCAAUAUUACGUACA | -3.16 ± 0.22 | -2.5 ± 0.27 |
| AGCCAGCAAUAUUACGUCUU | -1.23 ± 0.072 | -0.744 ± 0.089 |
| AGCCAGCAAUAUUACGUGAU | -2.31 ± 0.075 | -1.35 ± 0.098 |
| AGCCAGCAAUAUUACGUGUA | -3.52 ± 0.14 | -1.34 ± 0.11 |
| AGCCAGCAAUAUUACGUUAC | -4.34 ± 0.31 | -1.88 ± 0.21 |
| AGCCAGCAAUAUUACGUUCA | -3.21 ± 0.15 | -2.72 ± 0.18 |
| AGCCAGCAAUAUUACGUUGG | -3.52 ± 0.4 | -2.56 ± 0.23 |
| AGCGAGCAAUAUUACGAACC | -2.18 ± 0.14 | -0.856 ± 0.15 |
| AGCGAGCAAUAUUACGAAGA | – | -2.72 ± 0.34 |
| AGCGAGCAAUAUUACGACUA | -0.953 ± 0.37 | -1.03 ± 0.31 |
| AGCGAGCAAUAUUACGACUG | -1.91 ± 0.15 | -0.973 ± 0.17 |
| AGCGAGCAAUAUUACGAGCG | -1.55 ± 0.14 | -0.201 ± 0.14 |
| AGCGAGCAAUAUUACGCAAC | -3.6 ± 0.27 | -2.63 ± 0.21 |
| AGCGAGCAAUAUUACGCAAG | -3.18 ± 0.4 | -2.43 ± 0.45 |
| AGCGAGCAAUAUUACGCGAA | -2.39 ± 0.36 | -1.21 ± 0.32 |
| AGCGAGCAAUAUUACGCGAG | -1.35 ± 0.22 | -3.05 ± 0.4 |
| AGCGAGCAAUAUUACGCGGA | -3.21 ± 0.21 | -2.45 ± 0.19 |
| AGCGAGCAAUAUUACGCGUG | -1.48 ± 0.098 | -1.65 ± 0.13 |
| AGCGAGCAAUAUUACGGGAU | -3.92 ± 0.28 | -2.76 ± 0.27 |
| AGCGAGCAAUAUUACGGGUA | -2.6 ± 0.21 | -0.993 ± 0.18 |
